Measurements from publication PMC10057379.
Where no end group is shown, it is not given here.

How the values were obtained:
[1] = biological target: NRP-1 (Homo sapiens) (UniProt O14786); assay: SPR; settings: cited from earlier work
[2] = biological target: Neuropilin-1 (NRP-1) (human (endogenous in THP-1)) (UniProt O14786)

KDKPPR peptide
Kd [1]: 4.7 µM

B1: KDKPPR ligand peptide on AGuIX@PS@KDKPPR nanoparticles (peptide)
peptide: KDKPPR
modifications: also: grafted onto AGuIX nanoparticles with porphyrin and gadolinium
uptake of AGuIX@PS@KDKPPR nanoparticles (1 µM, 4 h or 24 h, 37 °C) by M0, M1 and M2 macrophages, porphyrin fluorescence of the cell lysate; control: AGuIX@PS@scramble, 24 h (fold (M0 and M2 against M1, 24 h)) [2]: 3
